{
  "source": "patent US20170121398A1",
  "about": "(PROTHENA BIOSCIENCES, published 2017)",
  "binders": {"B1": {"name": "mouse antibody 6C1 (antibody, IgG1, V domains shown)", "VH": "EVQLVESGGGLVQPGGSLKLSCAASGFTFSNYYMSWVRQTPEKRLEWVAYISIDGNNIYHPDSVKGRFTISRDNAKNTLYLQMSSLKSEDTAMYYCARDSDYGYFDVWGTGTTVTVSS", "VL": "DVLMTQTPLSLPVSLGDQASISCRSSQSIVHSNGNTYLEWYLQKRGQSPKLLIYKVSKRFSGVPDRFSGSGSGTDFILKISRVEAEDLGVYYCFQGSHVPLTFGGGTKLELK", "notes": "also called m6C1; mis-TTR mAb 6C1"}},
  "target": "pH4.0-treated TTR (human, UniProt P02766 21-147)",
  "experiment": "ELISA, pH4-treated TTR-His captured on an anti-His coat, anti-mouse HRP detection, OD450",
  "data": [
    {"binder": "B1", "values": [
      {"measurement": "EC50 (read off the curve)", "value": "~0.2", "unit": "µg/mL"}
    ]}
  ]
}
